Assay results reported in patent US20060008875A1 (UNIVERSITAIR MEDISCH CENTRUM ROTTERDAM, published 2006).

Target: T1, replication/repair factor RPA1 (human, UniProt P27694 1-616)
T1 construct: Endogenous protein in extracts of human TTD-A fibroblasts
Experiment: anti-HA immunoprecipitation from extracts of TTD-A fibroblasts expressing p8-HA, immunoblot
Excerpt: We cloned the human TFB5 cDNA from primary fibroblasts by virtue of its homology with yeast TFB5 using conventional techniques known in the art. An HA-tagged version of hTFB5 (p8-HA) was constructed via conventional molecular cloning methods (Maniatis et al, supra) and expressed in TTD-A fibroblasts and subsequently used for immuno-precipitations with anti-HA (FIG. 1a). Both the XPB core TFIIH and the associated CAK component (CDK7) were co-precipitated with p8-HA, in contrast to replication/repair factor RPA1 (data not shown). Conversely, anti-p44 (another core-TFIIH component) co-precipitated p8-HA. We conclude that, analogous to yeast, this small polypeptide is associated with TFIIH in mammalian cells.
Immunoprecipitation and immunoblot analysis. Whole cell extracts from MRC5SV, TTD1BRSV and TTD1BRSV+hTFB5HA were prepared by isolating cells from 6 petri dishes per cell line (13 cm). Collected cell-pellets were washed once in PBS prior to lysis by douncing (20 strokes using a 12.61 mm dounce homogenizer, Bellco Glass, INC., USA) in 2 ml of buffer A (50 mM Tris pH 7.9; 150 mM NaCl; 20% Glycerol; 0.1% NP40; 5 mM β-mercaptoethanol) supplemented with anti-proteases. […]

T1 sequence (P27694 whole entry): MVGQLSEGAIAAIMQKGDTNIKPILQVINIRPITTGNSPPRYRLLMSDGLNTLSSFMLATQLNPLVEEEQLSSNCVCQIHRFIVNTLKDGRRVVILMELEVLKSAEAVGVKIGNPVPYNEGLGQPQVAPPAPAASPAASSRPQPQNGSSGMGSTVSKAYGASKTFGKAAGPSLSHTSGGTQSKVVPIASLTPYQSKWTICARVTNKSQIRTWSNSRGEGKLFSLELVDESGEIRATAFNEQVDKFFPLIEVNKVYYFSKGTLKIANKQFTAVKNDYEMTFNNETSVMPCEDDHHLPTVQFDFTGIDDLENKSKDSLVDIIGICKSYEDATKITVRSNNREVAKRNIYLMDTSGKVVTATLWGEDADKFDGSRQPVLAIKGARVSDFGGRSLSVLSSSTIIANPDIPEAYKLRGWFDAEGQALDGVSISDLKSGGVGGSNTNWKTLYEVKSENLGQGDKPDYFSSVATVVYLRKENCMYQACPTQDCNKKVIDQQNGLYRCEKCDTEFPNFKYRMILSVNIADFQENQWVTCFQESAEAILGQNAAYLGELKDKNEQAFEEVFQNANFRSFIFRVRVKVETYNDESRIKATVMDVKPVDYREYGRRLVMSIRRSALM

- binding result: no binding
B1: HA-tagged version of hTFB5 (p8-HA) (other)
chain: MVNVLKGVLIECDPAMKQFLLYLDESNALGKKFIIQDIDDTHVFVIAELVNVLQERVGELMDQNAFSLTQK
notes: C-terminally HA-tagged TTDA cloned in pCDNA3 and expressed in TTD1BRSV (TTD-A) fibroblasts; tested in whole cell extracts; also called TTDA-HA; hTFB5HA; not shown: C-terminal HA tag
